# Laboratory results published in US5997865.
# Target: c-kit (mouse) (UniProt P05532)
substance,measurement,value
kit ligand,"expansion in cell number after 7 days of coculture on 7-4 stroma (AA4+ Kit+ Flk-2+ cells) (not stated (cell number, Table 2))",210
